Measurements as given in publication PMC3042951 (The journal of physical chemistry. B, 2010).

Target: the molecule itself
Experiment: cross-linking

B1: native human LysRS (70–584) T285C (enzyme)
chain: not shown
  stoichiometry N: 2
